Data: the nanobody polyreactivity screen of Harvey et al. (2022)

Assay: yeast display, Sf9 membrane polyspecificity reagent, FACS + sequencing; frameworks hold sequencing errors
How it was run: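 Galactose induction of a Saccharomyces cerevisiae BJ5465 synthetic nanobody display library ran 36–48 hours. The cells were then stained for 1 hour at 4 °C with 10% biotinylated, detergent-solubilized Sf9 membrane reagent, pulled down on streptavidin microbeads and FACS-sorted into low and high (top ~1%) gates on expression and reagent-binding fluorescence. Labels for polyreactivity follow the gate of origin.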

Row | Sequence | polyreactivity (PSR sort gate)
1 | QVQLVESGGGLVQAGGSLRLSCAASGSIFKYAMGWSRQAPGKERELVAAINQRGGRTYYADSVKGRFTISRDNAKNTVYLQMNSLKPEDTAVYYCNAYYLRTSSTEYDYWGQGTQVTVSS | high polyreactivity
2 | QVQLVESGGGLVQAGGSLRLSCAASGSIFKYNDMGWYRQAPGKERELVAAISWRGGRTYYADSVKGRFTISRDNAKNTVYLQMNSLKPEDTAVYYCNVVLDNRRGTYSYYYWGQGTQVTVSS | high polyreactivity
3 | QVQLVESGGGLVQAGGSLRLSCAASGSIFKYNDMGWYRQAPGKEREWVAAIRLGGGSTSYADSVKGRFTISRDNAKNTVYLQMNSLKPEDTAVYYCNAYAVYLRYLWYDYWGQGTQVTVSS | low polyreactivity
4 | QVQLVESGGGLVQAGGSLRLSCAASGSIFKYNTMGWYREAPGKESELVAAINGGGSTYYADSVKGRFTISRDNAKNTVYVTMNCLNPEDTAVYYCAKVQRTRGWSLDYWGHGTQVTVSS | high polyreactivity
5 | QVQLVESGGGLVQAGGSLRLSCAASGSIFKYYAMGGYRQAPGTERELVAAITQRGGSTYYADSVKGRFTISRDNAKNTGYLQMNRLNPEDTAVYYCNRYSLTAWYYRHGYYYWGQGTQVTVSS | high polyreactivity
6 | QVQLVESGGGLVQAGGSLRLSCAASGSIFKYYAMGWYRQAPGKERELVAAISRSGTSTYYADSVKGRFTISRDNAKNTVYLQMNSLKPEDTAVYYCAARLSYYSRMNYWGQGTQVTVSS | high polyreactivity
7 | QVQLVESGGGLVQAGGSLRLSCAASGSIFKYYAMGWYRQAPGKERELVAAISSGGSTKYADSVKGRFTISRDNAKNTVYLQMNSLKPEDTAVYYCAARDPSRHARRAYDYWGEGTQVTVSS | low polyreactivity
8 | QVQLVESGGGLVQAGGSLRLSCAASGSIFKYYAMGWYRQAPGKERQLVAVITSGGSTYYADSVKGRFTISRDNAKNTVYLQMNSLKPEDTAVYYCAAGVRAYNWGEYDYWGLGTQVTVSS | low polyreactivity
9 | QVQLVESGGGLVQAGGSLRLSCAASGSIFKYYSMGWYRQAPGKERELVAAITIGGNTNYADSVKGRFTISRDNAKNTVYLQLNSLKPEDTAVYYCATGGYYSAIVYGGYDYWGQGTQVTVSS | low polyreactivity
10 | QVQLVESGGGLVQAGGSLRLSCAASGSIFLAYAMGWYRQAPGKEREFVAAISFSDGSTYYADSVKGRFTISRDNAKNTVYLQMNSLKPEETAVYYCNKGASPDDYDYWGQGTQVTVSS | low polyreactivity
11 | QVQLVESGGGLVQAGGSLRLSCAASGSIFLEYAMGWYRQAPGKERELVAAISSSGGSTYYADSVKGRFTISRDNAKNTVYLQMNSLKPEDTAVYYCAAGKSKYGVRGYYWGQGTQVTVSS | high polyreactivity
12 | QVQLVESGGGLVQAGGSLRLSCAASGSIFLFNAMGWYRQAPGKERELVAAINRDDSTYYADSVKGRFTISRDNAKNTVYLQMNSLKPEDTAVYYCAARQRLSWKTEYYWGQGTQVTVSS | low polyreactivity
13 | QVQLVESGGGLVQAGGSLRLSCAASGSIFLKNAMGWYRQAPGKERELVAAITPGGSTYYADSVKGRFTISRDNAKNTVYFQMNSLKPEDSAVYHCAARPGGGKYRGYYYWGQGTQVTVSS | high polyreactivity
14 | QVQLVESGGGLVQAGGSLRLSCAASGSIFLKYAMGWYRQAPGKERELVATISRGGITYYADSVKGRFTISRDNAKNTVYLQMNSLKPEDTAVYYCATTGGRQYGYWGQGTQVTVSS | high polyreactivity
15 | QVQLVESGGGLVQAGGSLRLSCAASGSIFLLYAMGWYRQAPGKERELVAAIRWSGARTYYADSVKGRFTISRDKAKNTVYLQMNSLKPDDTAVYYCAADYVVDDIYWWEGDYWGQGTQVTVSS | high polyreactivity
16 | QVQLVESGGGLVQAGGSLRLSCAASGSIFLLYARGWYRQAPGKERELVAAISRGGSTYYADSVKGRFTISRDNAKNTVYLQMNSLKPEDTAVYYCAAKLYYGYDWGQGTQVTVSS | low polyreactivity
17 | QVQLVESGGGLVQAGGSLRLSCAASGSIFLNNAMGWYRQAPGKERELVAAITRNVGSTYYADSVKGRFTISRDNEKNTVYLQMNSLKPEDTAVYYCAADRRRRYDYWGQGTQVTVSS | low polyreactivity
18 | QVQLVESGGGLVQAGGSLRLSCAASGSIFLPNAMGWYRQAPGKEWELVAAISWSGGSTYADSVKGRFTISRDNAKNTVYLQMNSLKPEDTAVYYCAADDGFTPRDLYVGYDYWGLGTQVTVSS | low polyreactivity
19 | QVQLVESGGGLVQAGGSLRLSCAASGSIFLQNAMGWYRQAPGKERELVAAITNGGSTNYADSVKGRFTISRDNAKNTVYLQMNSLKPEDTAVYYCAAERAILSSDKQSLWRFDYWGQGTQVTVSS | low polyreactivity
20 | QVQLVESGGGLVQAGGSLRLSCAASGSIFLQNAMGWYRQAPGKERELVAAITNGGSTNYADSVKGRFTISRDNAKNTVYLQMNSLKPEDTAVYYCAVVRSYRGINDYWGQGTQVTVSS | low polyreactivity
21 | QVQLVESGGGLVQAGGSLRLSCAASGSIFLSNAIGWYRQAPGKERELVADIDWTGGDTYYADSVKGRFTISRDNAKNTVYLQMNSLKPEDTAVYYCASDYGYRNLLTEYGYWGQGTKVTVSS | low polyreactivity
22 | QVQLVESGGGLVQAGGSLRLSCAASGSIFLTNAMGWYRQAPGKERELVAAIRSGGSTSYADSVKGRFTISRDNAKNTVYLQMNSLKPEDTAVYYCNAESDYRNYKVHPSGIYEYWGQGTQVTVSS | low polyreactivity

Row | Sequence | polyreactivity (PSR sort gate)
23 | QVQLVESGGGLVQAGGSLRLSCAASGSIFLTNAMGWYRQAPGKEREMVAAITLSGGITYYADSVKGRFTISRDNAKNNVYLQMNILKPEDTAVYYCAADVPGGIGNGGGYDYWGQGTQVTVSS | low polyreactivity
24 | QVQLVESGGGLVQAGGSLRLSCAASGSIFLTYAMGWYRQAPGKESELVAAISSGDSTNYTDSVKGRFTISRDNAKNTVYLQMNSLKPEDTAVYYCAADLTYTMDHWGQGTQVTVSS | low polyreactivity
25 | QVQLVESGGGLVQAGGSLRLSCAASGSIFLVNAKGWYRQAPGKERELVAAITWIGGSTYYADSVKGRFTISRDNAKNTVYLQMNSLKPEDTAVYYCAAYGKRLGGGGYYWGQGTQVTVSS | high polyreactivity
26 | QVQLVESGGGLVQAGGSLRLSCAASGSIFLVNDMGWYRQAPGKERELVAAISYSGDSTYYADSVKGRFTISRDNAKNTVYLQMNSLKPEDTAVYYCAADVFIISYVAAWHVRIDEFEWGQGTQVTVSS | low polyreactivity
27 | QVQLVESGGGLVQAGGSLRLSCAASGSIFLYNAMGWYRQAPGKERELVAAISASGGSTYYADSVKGRFTISRDNAKNTVYLQMNSLKPEDTAVYYCAAQYSDYDGFTWPLPPRYDYWGQGTQVTVSS | high polyreactivity
28 | QVQLVESGGGLVQAGGSLRLSCAASGSIFLYNAMGWYRQAPGKERELVAAITWSTDRTYYADSVKGRFTISRDNAKNTVYVQMNSLKPEDTAVYYCNRLVNHIYVPRRDYWGQGTQVTVSS | low polyreactivity
29 | QVQLVESGGGLVQAGGSLRLSCAASGSIFLYNAMGWYRQAPGKERELVATITYIGGRTYYADSVKGRFTISRDNAKNTVYLQMNSLKQEDTAVYYCAAEYYVISSPSFYEYDYWGQGTQVTVSS | low polyreactivity
30 | QVQLVESGGGLVQAGGSLRLSCAASGSIFLYNTMGWYRQAPGKQRELVAALTYSGGSTYYADSVKGRFTISRDHAKNTVYLQMNSLKPEDTAVNYGNARHYSAYYSWGQGTLVTVSS | high polyreactivity
31 | QVQLVESGGGLVQAGGSLRLSCAASGSIFLYYAMGWYRQAPGKVRALLAAISWDGGSTYYADSVKGRFTISRDNAKNTVYLQMNSLKPEDTAVYYCNKAPYYYLPHSLRYNYWGQGTQVTVSS | high polyreactivity
32 | QVQLVESGGGLVQAGGSLRLSCAASGSIFMGNAMGWYRQAPGKERELVATITSSGSTSYADSVKGRFTISRDNAKNTVYVQMNSLKPEDTAVYYCNTDLFQYGRTSTIYYEYDYWGQGTQVTVSS | high polyreactivity
33 | QVQLVESGGGLVQAGGSLRLSCAASGSIFNAYAMGWYRQAPGKERELVAVISRPGGSTYYADSVKGRFTISRDNAKNTVYLQMNSLKPEDTAVYYCNVYYPYKHRYYHLDYWGQGTQVTVSS | high polyreactivity
34 | QVQLVESGGGLVQAGGSLRLSCAASGSIFNDNVMGWYRQAPGKERELVAGISRSGTRTYYADSVKGRFTISRDNAKNTVYLQMNSLKPEDTAVYSGAAAYGQARRYNGSQYGSWGQGTQVTVSS | high polyreactivity
35 | QVQLVESGGGLVQAGGSLRLSCAASGSIFNDYGKAWYRQAPGKERDLVAAISASGGSTYYADSVKGRFTISRYNAKNPVYLQLNSLNPEDTAVYYCAAYYMGLYYLYVDALGYDYWGQGTQVTVSS | low polyreactivity
36 | QVQLVESGGGLVQAGGSLRLSCAASGSIFNLNAMGWYIQAPGKERELVASISSDRSTYYADSVKGRFTISRDNAKNTVYLQMNSLKQEDTAVYYCNADSQLAFKQLSFDYWGQGTQVTVSS | low polyreactivity
37 | QVQLVESGGGLVQAGGSLRLSCAASGSIFNLNAMGWYRQAPGKEREFVAGITYSAGRTYYADSVKGRFTISRDNAKNTVYLQMNSLKPEDTAVYYCAARIYSKFTSYGILDSWGQGTQVTVSS | high polyreactivity
38 | QVQLVESGGGLVQAGGSLRLSCAASGSIFNLYAMGWYRQAPGKERELVAAINWSGGSTYYADSVKGRFTISRDNAKNTVYLQMNSLKPEDTAVYYCAADAYSTYYGYEGDYWGQGTQVTVSS | low polyreactivity
39 | QVQLVESGGGLVQAGGSLRLSCAASGSIFNLYAMGWYRQAPGKEREMVAAISYSTGSTYYADSVKGRFTISRDNAKNTVYLQMTSLKPEDTAVYYCNAQEGILGWVLYDYWGQGTQVTVSS | high polyreactivity
40 | QVQLVESGGGLVQAGGSLRLSCAASGSIFNPYDMGWYRQAPGKERELVAAIDWSGGSTYYADSVKGRFTISRDNAKNTVYLQMNSLKPEDTAVYYCNAESYQDTLFGADNDYDYWGQGTQVTVSS | low polyreactivity
41 | QVQLVESGGGLVQAGGSLRLSCAASGSIFNQYAMGWHRQAPGKERELVAAISSDGGRTYYADSVKGRFTISRDNAKNTVYLQMNSLNPEDTAVYYCNKDVRPAYRWYDYWGQDTQVTVSS | low polyreactivity
42 | QVQLVESGGGLVQAGGSLRLSCAASGSIFNRNAMGWYRQAPGKERELVAAITRRGGSTYYADSVKGRFTISRDNAKNTVYLQMNSLKPEDTAVYYCAAATRKTEYDYWGQGTQVTVSS | low polyreactivity
43 | QVQLVESGGGLVQAGGSLRLSCAASGSIFNRYAMGCYRQATGKERELVAAINSRGGSTSYADSVKGRFTISRDIAKNTVYLQMNSLKPEDTAVYYCAADRGVNSYGYWGQGTQETVSS | high polyreactivity
